Assay results from paper PMC8161422.

Assays:
[1] = target: alpha-synuclein 5Q mutant E114Q;E123Q;E126Q;E137Q;E139Q (UniProt P37840); experiment: pH electrode (Orion Star A211 meter, Orion ROSS combination micro electrode) before and after fibril formation; closed-system proton balance; conditions: fibril formation at 37 °C, temperature of the pH reading not stated, no added salt (pure water; protein and its counter-ions only), none (Milli-Q water; the protein is the only buffer)
[2] = target: alpha-synuclein, wild type (UniProt P37840); experiment: NMR pH titration (quoted from Croke et al. 2011, ref 30); Asp and Glu values averaged by the present authors; conditions: in absence of salt (Table 1 footnote d), not stated for the Asp/Glu values ('in buffer'); cited from earlier work
[3] = target: alpha-synuclein, wild type (UniProt P37840); experiment: NMR pH titration (quoted from Croke et al. 2011, ref 30); conditions: 20 mM sodium phosphate buffer, pH 7 (so in the source); cited from earlier work
[4] = target: alpha-synuclein, wild type (UniProt P37840); experiment: pH electrode (Orion Star A211 meter, Orion ROSS combination micro electrode) before and after fibril formation; closed-system proton balance; conditions: fibril formation at 37 °C, temperature of the pH reading not stated, no added salt (pure water; protein and its counter-ions only), none (Milli-Q water; the protein is the only buffer)
His50 = His50 (UniProt position 50, KEGVVHGVATV); experiment: NMR; conditions: No added salt is implied by the Table 1 footnote 'in absence of salt'. Ionic strength is otherwise not stated.; 20 mM sodium phosphate buffer, pH 7 (as described in this article); protein 250 µM; free monomer, intrinsically disordered, no fibrils; cited from earlier work

Substance: alpha-synuclein 5Q mutant E114Q;E123Q;E126Q;E137Q;E139Q
- change of sample pH on fibril formation ([1]; pH 6.4-6.6): pH increases by only 0.2 units, from pH 6.4 (monomer) to pH 6.6 (fibrils), 20 uM in water
- apparent pKa(ave) of acidic groups in fibrils, average over the remaining acidic groups (five fewer than wild type) of the 5Q mutant ([1]; pH 6.6): 4.7 pH units

Substance: alpha-synuclein, wild type
- pKa in C-terminal tail of α-synuclein (Asp), average of Asp residues in the C-terminal tail of monomeric alpha-synuclein [2]: 4.2 pH units
- pKa in C-terminal tail of α-synuclein (Glu), average of Glu residues in the C-terminal tail of monomeric alpha-synuclein [2]: 4.6 pH units
- pKa in N-terminal and NAC region of α-synuclein (Asp), average of Asp residues in the N-terminal and NAC regions (first 100 residues) of monomeric alpha-synuclein [2]: 3.6 pH units
- pKa in N-terminal and NAC region of α-synuclein (Glu), average of Glu residues in the N-terminal and NAC regions (first 100 residues) of monomeric alpha-synuclein [2]: 4.2 pH units
- pKa in full length α-synuclein monomer (Asp), average of all Asp residues of monomeric alpha-synuclein [2]: 4 pH units
- pKa in full length α-synuclein monomer (Glu), average of all Glu residues of monomeric alpha-synuclein [2]: 4.4 pH units
- pKa, His50 of alpha-synuclein (monomer) [3]: 6.78 pH units
- change of sample pH on fibril formation ([4]; pH 5.6-6.5): pH increases by 0.9 units, from pH 5.6 (monomer) to pH 6.5 (fibrils), 20 uM in water
- protons taken up per monomer during fibril formation ([4]; pH 5.6-6.5): about 2 protons per monomer
- apparent pKa(ave) of acidic groups in fibrils, average over all acidic groups (Asp, Glu and the C-terminus) of alpha-synuclein ([4]; pH 6.5): 5.4 pH units

Substance: alpha-synuclein (Homo sapiens)
- pKa (His50): 6.78
